The target of the assay is rat CSF1-R (CD115) expressed on pDCs (rat) (UniProt Q00495). Kind of assay: cell-based or functional assay.
Chain of UniProt Q00495 (Q00495 20-978): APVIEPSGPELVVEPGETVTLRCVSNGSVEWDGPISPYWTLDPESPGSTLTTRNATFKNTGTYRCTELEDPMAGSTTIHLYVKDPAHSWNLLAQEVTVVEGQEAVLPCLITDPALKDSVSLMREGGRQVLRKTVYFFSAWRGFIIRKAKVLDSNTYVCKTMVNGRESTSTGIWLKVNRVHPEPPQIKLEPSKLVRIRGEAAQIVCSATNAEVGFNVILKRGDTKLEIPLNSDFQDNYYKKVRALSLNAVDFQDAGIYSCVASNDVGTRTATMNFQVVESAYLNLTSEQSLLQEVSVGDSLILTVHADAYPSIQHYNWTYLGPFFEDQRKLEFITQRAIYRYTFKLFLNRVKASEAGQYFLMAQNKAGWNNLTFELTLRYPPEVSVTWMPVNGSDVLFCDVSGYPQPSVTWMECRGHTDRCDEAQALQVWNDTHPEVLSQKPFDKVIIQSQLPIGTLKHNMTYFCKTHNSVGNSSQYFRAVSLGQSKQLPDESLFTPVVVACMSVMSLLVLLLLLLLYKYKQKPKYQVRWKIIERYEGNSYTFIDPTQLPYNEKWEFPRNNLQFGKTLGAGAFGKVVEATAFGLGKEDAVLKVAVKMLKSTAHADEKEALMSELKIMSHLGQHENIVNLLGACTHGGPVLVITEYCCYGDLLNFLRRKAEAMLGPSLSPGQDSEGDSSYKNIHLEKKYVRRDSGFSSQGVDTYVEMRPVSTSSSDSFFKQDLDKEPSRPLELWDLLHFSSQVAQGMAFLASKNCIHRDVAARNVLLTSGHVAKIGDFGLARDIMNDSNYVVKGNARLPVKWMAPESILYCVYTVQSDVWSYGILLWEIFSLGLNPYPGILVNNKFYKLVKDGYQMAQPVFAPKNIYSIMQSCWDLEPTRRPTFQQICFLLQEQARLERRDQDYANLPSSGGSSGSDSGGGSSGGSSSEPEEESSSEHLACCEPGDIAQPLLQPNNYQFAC

For “Rat M-CSF protein (ab56288, ABCAM) (from UniProt Q8JZQ0 33-187) (ligand)”, the suppression of CD4+CD25- T cells proliferation (MLR, CFSE) amounted to 93.5%.
